Common to all, as to experiment: cell-based or functional assay
For experiment [1], the target named is GFP^2-Pflu-H3-RLuc2 fusion protein.
The target of experiment [2] is GFP^2-Pflu1-RLuc2 fusion protein (Pflu sensor 1).
For experiment [3], the target named is GFP^2-Pflu2-RLuc2 fusion protein (Pflu sensor 2).
Experiment [4] concerns the target GFP^2-Pflu3-RLuc2 fusion protein (Pflu sensor 3).
Experiment [5] addresses GFP^2-plas1-RLuc2 fusion protein (BRET^2 plasmin sensor).

Chain of bovine plasmin (Sigma) (P06868 104-812 limits assumed): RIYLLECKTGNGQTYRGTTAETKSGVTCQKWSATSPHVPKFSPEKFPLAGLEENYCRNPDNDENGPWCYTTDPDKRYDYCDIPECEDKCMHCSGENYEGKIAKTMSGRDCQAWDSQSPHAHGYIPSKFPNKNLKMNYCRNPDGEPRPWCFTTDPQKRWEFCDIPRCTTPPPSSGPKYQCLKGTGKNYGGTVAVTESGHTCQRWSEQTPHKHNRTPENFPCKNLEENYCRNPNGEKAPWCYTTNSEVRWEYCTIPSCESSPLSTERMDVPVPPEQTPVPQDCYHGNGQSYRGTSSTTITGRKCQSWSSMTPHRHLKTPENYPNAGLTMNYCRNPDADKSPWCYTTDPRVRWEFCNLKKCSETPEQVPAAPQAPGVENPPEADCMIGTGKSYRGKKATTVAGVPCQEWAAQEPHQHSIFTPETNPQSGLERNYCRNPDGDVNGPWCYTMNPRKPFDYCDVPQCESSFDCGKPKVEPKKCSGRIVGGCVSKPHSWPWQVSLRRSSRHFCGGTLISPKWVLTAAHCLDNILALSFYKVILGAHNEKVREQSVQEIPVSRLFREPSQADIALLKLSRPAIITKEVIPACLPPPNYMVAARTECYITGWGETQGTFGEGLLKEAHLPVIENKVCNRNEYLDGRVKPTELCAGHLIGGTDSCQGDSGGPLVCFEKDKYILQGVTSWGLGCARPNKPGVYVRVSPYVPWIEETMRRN
Chain of human plasmin (Sigma) (P00747 97-810 limits assumed): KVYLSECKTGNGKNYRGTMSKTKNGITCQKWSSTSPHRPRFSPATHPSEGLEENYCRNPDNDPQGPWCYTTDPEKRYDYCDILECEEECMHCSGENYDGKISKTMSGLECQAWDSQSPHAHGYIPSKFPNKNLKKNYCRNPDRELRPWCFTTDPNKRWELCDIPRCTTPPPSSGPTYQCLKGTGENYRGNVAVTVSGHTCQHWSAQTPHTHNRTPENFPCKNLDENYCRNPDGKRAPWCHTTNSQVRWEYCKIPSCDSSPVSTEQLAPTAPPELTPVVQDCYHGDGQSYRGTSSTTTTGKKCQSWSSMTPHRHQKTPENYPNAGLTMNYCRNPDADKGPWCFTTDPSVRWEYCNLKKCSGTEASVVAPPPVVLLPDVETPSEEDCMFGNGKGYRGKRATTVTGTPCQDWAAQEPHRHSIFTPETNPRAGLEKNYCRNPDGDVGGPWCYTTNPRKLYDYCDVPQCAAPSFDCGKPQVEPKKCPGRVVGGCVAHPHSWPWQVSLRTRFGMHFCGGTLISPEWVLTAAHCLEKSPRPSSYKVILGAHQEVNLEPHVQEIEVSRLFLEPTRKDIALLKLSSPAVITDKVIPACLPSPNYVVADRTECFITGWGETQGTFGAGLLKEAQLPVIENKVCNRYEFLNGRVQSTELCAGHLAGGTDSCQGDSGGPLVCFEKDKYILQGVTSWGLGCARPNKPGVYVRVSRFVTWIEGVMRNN

Consider “crude bacterial protease from Pseudomonas fluorescens strain 65 (enzyme)”, for which, in experiment [1], the EC50, BRET^2 response, raw milk came out at 0.5 nM and the EC50, BRET^2 response, raw milk, protease concentration by BSA standard was found to be 5.4 nM. In experiment [2], the EC50, BRET^2 response, 50% full fat UHT milk is 0.7 nM; the EC50, BRET^2 response, 50% full fat UHT milk, protease concentration by BSA standard was found to be 8.2 nM; the EC50, BRET^2 response, 50% raw milk, no pre-treatment, 10 mins. incubation was 0.14 nM; the EC50, BRET^2 response, 50% raw milk, no pre-treatment, 2 hrs incubation was found to be 0.0339 nM. In experiment [2], the EC50, BRET^2 response, 50% raw milk, pre-treatment, 10 mins. incubation stood at 0.353 nM; the EC50, BRET^2 response, 50% raw milk, pre-treatment, 2 hrs incubation was 0.1 nM; the EC50, BRET^2 response, raw milk turned out to be 0.14 nM; the EC50, BRET^2 response, raw milk, protease concentration by BSA standard was found to be 1.63 nM. In addition, in experiment [3], the EC50, BRET^2 response, 50% full fat UHT milk amounted to 2.6 nM and the EC50, BRET^2 response, 50% full fat UHT milk, protease concentration by BSA standard stood at 30.4 nM. Further, in experiment [4], the EC50, BRET^2 response, 50% full fat UHT milk was determined as 2.3 nM and the EC50, BRET^2 response, 50% full fat UHT milk, protease concentration by BSA standard was 26.4 nM. Also, in experiment [5], the EC50, BRET^2 response, 50% full fat UHT milk turned out to be 50 nM; the EC50, BRET^2 response, 50% full fat UHT milk, protease concentration by BSA standard worked out at 580 nM; the EC50, BRET^2 response, raw milk stood at 1.4 nM; the EC50, BRET^2 response, raw milk, protease concentration by BSA standard was 16.2 nM.
Substance “bovine plasmin (Sigma) (from UniProt P06868 97-805) (enzyme)” gave an EC50, BRET^2 response, raw milk in experiment [1] of 174 nM. Besides, the results for the EC50, BRET^2 response, 50% full fat UHT milk in experiment [2] and in experiment [5] were 169 nM and 108 nM, respectively.
“human plasmin (Sigma) (from UniProt P00747 97-810) (enzyme)” registered an EC50, BRET^2 response, 50% full fat UHT milk in experiment [2] of 124 nM. The substance also registered an EC50, BRET^2 response, 50% full fat UHT milk in experiment [3] of 926 nM. The same substance had an EC50, BRET^2 response, 50% full fat UHT milk in experiment [4] of 1280 nM. Also, in experiment [5], the EC50, BRET^2 response, 50% full fat UHT milk came to 5.6 nM; the EC50, BRET^2 response, heat treated raw milk, one-step pre-treatment protocol was 24.2 nM; the EC50, BRET^2 response, heat treated raw milk, one-step pre-treatment with low power sonication stood at 29.3 nM; the EC50, BRET^2 response, heat treated raw milk, pre-treatment protocol of Rauh et al. (2014) is 19.5 nM. For the same substance, the EC50, BRET^2 response, heat treated raw milk, two-step pre-treatment protocol in experiment [5] is 16 nM.
Consider “crude bacterial protease from Pseudomonas fluorescens strain 117 (enzyme)”, for which, in experiment [2], the EC50, BRET^2 response, raw milk worked out at 0.2 nM and the EC50, BRET^2 response, raw milk, protease concentration by BSA standard is 2.6 nM.

The values are drawn from patent publication US20190345535A1.
